The values that follow come from patent publication US20260125454A1 (SHANGHAI JUNSHI BIOSCIENCES, published 2026).

Numbering of substitutions follows the chain as printed.

For assay [1], the target named is CGRP antigen. Description: cell-based or functional assay.
Assay [2] addresses T1, Biotin-huCGRPaSA (human, not fully specified; biotin (position not given)).
T1 construct: exact construct ('aSA') not explained; also called Biotin CGRPaSA; full-length (1-37) CGRP
T1 peptide: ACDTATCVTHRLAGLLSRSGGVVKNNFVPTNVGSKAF
Description: ELISA, supernatant; relative to chimeric C245. The method, boiled down:
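Plates coated with biotin-CGRPaSA at 1.0 μg/mL (90 min, 37°C) and blocked with 2% BSA. Humanized antibodies and chimeric C245 reference, 2.5-fold serial dilutions from 1000 ng/mL, bound 60 min at 37°C. Detection by HRP anti-human IgG (Fc), TMB 15 min, read at 450/620 nm.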
For orientation: ELISA stands for enzyme-linked immunosorbent assay.

Assay [3] addresses CGRP antigen. The assay can be described thus: cell-based or functional assay. The source holds these as a separate data set.
For assay [4], the target named is T1, Biotin-huCGRPaSA. Description: ELISA, transfection supernatant, biotin-CGRP on streptavidin. As for the experimental part:
Streptavidin was diluted to 0.5 μg/mL by using PBS (Hyclone) and added into a plate at 100 μL/well. The plate was incubated in a thermostat incubator at 37° C. for 90 min and then washed. 2% BSA was added to the plate at 200 μL/well, and the plate was incubated in the thermostat incubator at 37° C. for 90 min and washed. Biotin-huCGRPaSA was diluted to 2.0 μg/mL with 2% BSA and added into the plate at 100 μL/well, and the plate was incubated in the thermostat incubator at 37° C. for 60 min. The reference antibody (47-RM) was diluted to 2500 ng/ml with a diluent (2% BSA) and serially 4-fold diluted to 0.15 ng/mL, and the chimeric antibodies were diluted with a cell supernatant stock solution. All the chimeric antibody solutions and the reference antibody solution were added into plates at 80 μL/well, and the plates were incubated in a thermostat incubator at 37° C. for 60 min and washed. An HRP-conjugated mouse anti-human antibody IgG4 (manufacturer: Southern Biotech, Cat. No. 9200-05; Fc specificity) was diluted 5000-fold with 2% BSA and added into the plates at 100 μL/well, and the plates were incubated in the thermostat incubator at 37° C. for 60 min and washed. 0.1 mg/mL chromogenic reagent TMB was carefully added at 100 μL/well to avoid bubbles, and the system was incubated at 37° C. for 10 min away from light for chromogenic reaction. Finally, a 2 M hydrochloric acid solution was added at 100 μL/well to stop the reaction while avoiding bubbles, and the plates were read on a microplate reader within 10 min (the detection wavelength was 450 nm; the reference wavelength was 620 nm).

The target of assay [5] is T1, Biotin-huCGRPaSA. The assay can be described thus: ELISA, purified antibody; relative to reference 47-RM-20190815. As for the experimental part: Streptavidin was diluted to […] by using PBS (Hyclone) and added into a plate at 100 μL/well. The plate was incubated in a thermostat incubator at 37° C. for 90 min and then washed. 2% BSA was added to the plate at 200 μL/well, and the plate was incubated in the thermostat incubator at 37° C. for 90 min and washed. Biotin-huCGRPaSA was diluted to 2.0 μg/mL with 2% BSA and added into the plate at 100 μL/well, and the plate was incubated in the thermostat incubator at 37° C. for 60 min. The chimeric antibodies in Table 3 and reference antibody (47-RM-20190815) were diluted to 1000 ng/ml with a diluent (2% BSA) and serially 10-fold diluted to 1 ng/mL. All the chimeric antibody solutions and the reference antibody solution were added into plates at 100 μL/well, and the plates were incubated in a thermostat incubator at 37° C. for 60 min and washed. An HRP-conjugated mouse anti-human antibody IgG4 (manufacturer: Southern Biotech, Cat. No. 9200-05; Fc specificity) was diluted 5000-fold with 2% BSA and added into the plates at 100 μL/well, and the plates were incubated in the thermostat incubator at 37° C. for 60 min and washed. 0.1 mg/mL chromogenic reagent TMB was carefully added at 100 μL/well to avoid bubbles, and the system was incubated at 37° C. for 5 min away from light for chromogenic reaction. Finally, a 2 M hydrochloric acid solution was added at 100 μL/well to stop the reaction while avoiding bubbles, and the plates were read on a microplate reader within 10 min (the detection wavelength was 450 nm; the reference wavelength was 620 nm). EC₅₀ was fit by using a four-parameter logistic regression (4PL) model.

B1: hu231 (antibody, human IgG4 S228P, kappa, V domains shown)
VH: QVQLVQSGSELKKPGASVKVSCKASGYTFTGYTMNWVRQAPGQGLEWMGLINPYIGNTHYNQKFKDRFVFSVDRSSSTAYLQISSLKAEDTAVYYCARELDSGFDYWGQGTLVTVSS
VL: DVVMTQTPLSLSVTPGQPASISCRSSQNIVHSNGDTYLEWYLQKPGQSPQLLIYKVSNRFSGVPDRFSGSGSGTDFTLKISRVEAEDVGVYYCYQGSHVPWTFGQGTKLEIKR
As for B1, in assay [1], the “IC50” value was found to be 0.0284 µg/mL and the “relative activity (%) vs C245” value worked out at 91%. The “Relative binding activity, %” value in assay [2] was determined as 68%.

B2: hu38 (antibody, V domains shown)
VH: QVQLVQSGAEVKKPGASVKVSCKASGYTFIDFNMHWVRQAPGQRLEWMGYIYPYNGDVVYNQNFTNRVTLTVDTSSSTAYMELSSLRSEDTAVYYCAREGLGGYWGQGTLVTVSS
VL: DIVLTQSPDSLAVSLGERATINCKASQNIDYGGYSYMNWYQQKPGQPPKVLIYSVFNLESGVPDRFSGSGSGTDFTLTISSLQAEDVAVYYCQQSNEAPYTFGQGTKLEIK
notes: 1F5 HC-1/3H10 LC2-1
For B2, in assay [1], the 50% inhibitory concentration (IC50) is 0.0725 µg/mL and the “relative activity (%) vs Ref(TEVA)” value came out at 50%. Besides, the “Relative binding activity, %” value in assay [2] amounted to 139%.

B3: C48 (antibody, V domains shown)
VH: EVQLQQSGPEVVKPGASVRISCQASGYTFTDYNMHWVKQSHGKSLEWIGYIFPYNGVAVYNRKFRSKATLIIDKSSTTAYMELRSLTSEDSAVYYCAREGLGGYWGQGTTLTVSS
VL: DIVLTQSPASLAVSLGQRATISCKASQNIDYDGYAYLNWYQQKPGQPPKVLIYSVFNLESGIPARFSGSGSGTDFTLNIHPVEEEDAATYYCQQSNEFPYTFGGGTKLEVK
notes: 1B2-HC + 1A2-LC2; chimeric, human constant regions
Consider B3, for which the “Relative binding activity (%) vs Ref(Teva)” value (shortened to “Relative binding activity (%)”) in assay [3] was found to be 93%. For the same molecule, the OD value in assay [4] stood at 3.12 OD. Besides, the “Relative activity (%)” value in assay [5] was found to be 60.4%.

B4: C51 (antibody, V domains shown)
VH: B3 VH
VL: B3 VL with Y31F, L37M, Q42H, K49R, N96H, F98V, K107N, V110I
notes: 1B2-HC + 1F5-LC1; chimeric, human constant regions
Take B4: the OD value in assay [4] came to 3.04 OD. For the same molecule, the “Relative activity (%)” value in assay [5] came out at 56%.

B5: C69 (antibody, V domains shown)
VH: B3 VH
VL: B3 VL with A9D, D32G, A35S, L37M, N78T, F98A, V110I, K111R
notes: 1B2-HC + 3H10-LC2; chimeric, human constant regions
As for B5, the “Relative binding activity (%)” value in assay [3] is 42.2%. Also, the OD value in assay [4] was found to be 3.07 OD. Further, the “Relative activity (%)” value in assay [5] worked out at 221%.

B6: hu225 (antibody, V domains shown)
VH: QVQLVQSGAEVKKPGASVKVSCKASGYSFTGYTMNWVRQAPGQRLEWMGLINPYIGNTHYNQKFKDRVTFTVDRSSSTAYMELSSLRSEDTAVYYCARELDSGFDYWGQGTLVTVSS
VL: DVVMTQSPDSLAVSLGERATINCRSSQNIVHSNADTYLEWYQQKPGQPPKLLIYKVSNRFSGVPDRFSGSGSGTDFTLTISSLQAEDVAVYYCYQGSHVPWTFGQGTKLEIK
notes: 3C1 HC-1/3C1 LC-4
In the case of B6, in assay [1], the midpoint of inhibition, the IC50, lay at 0.185 µg/mL and the “relative activity (%) vs C245” value was 10%. The “Relative binding activity, %” value in assay [2] turned out to be 52%.

B7: hu237 (antibody, V domains shown)
VH: B6 VH with S28T, R44G, S85R, E89D
VL: B6 VL
notes: 3C1 HC-4/3C1 LC-4
Consider B7, for which, in assay [1], 0.129 µg/mL corresponded to half-maximal inhibition (IC50) and the “relative activity (%) vs C245” value is 22%. In assay [2], the “Relative binding activity, %” value was found to be 65%.

B8: hu236 (antibody, V domains shown)
VH: B6 VH with S28T, R44G, S85R, E89D
VL: B6 VL with A34G
notes: 3C1 HC-4/3C1 LC-3
As to B8, in assay [1], half-maximal inhibition (IC50) was put at 0.0514 µg/mL and the “relative activity (%) vs C245” value came out at 55%. Moreover, the “Relative binding activity, %” value in assay [2] was 68%.

B9: hu233 (antibody, V domains shown)
VH: B1 VH
VL: B6 VL
notes: 3C1 HC-3/3C1 LC-4
As to B9, in assay [1], the “IC50” value stood at 0.0877 µg/mL and the “relative activity (%) vs C245” value is 30%. Moreover, the “Relative binding activity, %” value in assay [2] was 68%.

B10: hu232 (antibody, V domains shown)
VH: B1 VH
VL: B6 VL with A34G
notes: 3C1 HC-3/3C1 LC-3
As for B10, in assay [1], inhibition was half-maximal at 0.044 µg/mL (IC50) and the “relative activity (%) vs C245” value came to 59%. The “Relative binding activity, %” value in assay [2] was determined as 70%.

B11: C125 (antibody, V domains shown)
VH: EVQLQQSGPELVKPGASVKISCKASGYTFTDYNMHWVKQSHGKSLEWIGNIYPYNGGTVYNQKFNNKATLTVHTSSSTAYMDLRSLTSDDSAVYYCAREGLGGYWGQGTTLTVSS
VL: DVVLTQSPTSLAVSLGQRATISCQASQNIDGNTYMNWYQQKPGQPPKVLIYSIFNLESGIPARFSGSGSGTHFTLTIHPVEEEDAATYYCQQSNDYPYTFGGGTKLEIK
notes: 2B8-HC1 + 2B8-LC2; chimeric, human constant regions
Regarding B11, in assay [3], the “Relative binding activity (%)” value came to 76.4%. The molecule further gave an OD value in assay [4] of 3.08 OD. Further, the “Relative activity (%)” value in assay [5] was found to be 62.9%.

B12: C276 (antibody, V domains shown)
VH: B11 VH with A24T, N50Y, Y52S, V59A, N65K, N66F, A68S, H73D, D82E, D89E
VL: B3 VL with A9D, D32G, A35S, L37M, N78T, F98A, V110I, K111R
notes: 3E5-HC + 3H10-LC2; chimeric, human constant regions
B12 came in with an OD value in assay [4] of 3.01 OD. Also, the “Relative activity (%)” value in assay [5] was determined as 84.1%.

B13: C350 (antibody, V domains shown)
VH: B11 VH with K13Q, K43E, N50Y, G57H, N65R, L70M, H73D, T74S, D89E, R98K
VL: B3 VL with Y31F, L37M, Q42H, K49R, N96H, F98V, K107N, V110I
notes: 3H10-HC + 1F5-LC1; chimeric, human constant regions
As for B13, the OD value in assay [4] was 3 OD. In addition, in assay [5], the “Relative activity (%)” value turned out to be 108%.

B14: C263 (antibody, V domains shown)
VH: B11 VH with A24T, N50Y, Y52S, V59A, N65K, N66F, A68S, H73D, D82E, D89E
VL: B11 VL
notes: 3E5-HC + 2B8-LC2; chimeric, human constant regions
B14 yielded an OD value in assay [4] of 3.02 OD. In assay [5], the “Relative activity (%)” value amounted to 111%.

B15: C138 (antibody, V domains shown)
VH: B11 VH
VL: B3 VL with A9D, D32G, A35S, L37M, N78T, F98A, V110I, K111R
notes: 2B8-HC1 + 3H10-LC2; chimeric, human constant regions
For the molecule B15, the OD value in assay [4] came to 3.06 OD. In addition, the “Relative activity (%)” value in assay [5] was 136%.

B16: C131 (antibody, V domains shown)
VH: B11 VH
VL: B3 VL with A35T, V55I, F98V, V110I
notes: 2B8-HC1 + 3E5-LC; chimeric, human constant regions
Regarding B16, the OD value in assay [4] came out at 3.02 OD. In addition, the “Relative activity (%)” value in assay [5] is 116%.

A word on the IC50: it is the concentration that inhibits the measured activity by half. Low readings indicate higher potency, high ones lower potency.
